Experimental data as given in patent US12534533B2, “Anti-chemokine like receptor 1 humanized antibodies and their therapeutic applications” (OSE IMMUNOTHERAPEUTICS, priority 2019, dated 2026).

How the values were obtained:
MC38 cells = assay: MC38 colon carcinoma model; assay type: in vivo, mice; details: 20 μg/injection i.p. for 3 weeks; vs isotype control; FIG. 9D
Procedure: FIG. 9. Effect of an anti-CMKLR1 antibody on 2 different colon carcinoma mice models. Two mice models were studied, and animals received isotype control antibody (3G8) (x) or anti-CMKLR1 (2G1) (□) at 20 μg/injection intraperitoneally for 3 weeks. A-C. Results in the CT26 colon carcinoma model comparing single treatment with p84 (A) and 2G1 (B) with combined therapy with both antibodies (C). D: Results in the MC38 colon carcinoma model.
8-week old C57bl/6J male mice were anesthetized with 3% of isoflurane. Mice were shaved on the flank and MC38 cells (0.5·10≢cells/mouse) cell lines were injected subcutaneously with an insulinic syringe (30 Gauges) in 50 μL of PBS. Another model was used, in which 8-week old Balb/c male mice were anesthetized with 3% of isoflurane. Mice were shaved on the flank and CT26 cells (1.10≢cells/mouse) were injected subcutaneously with an insulinic syringe (30 Gauges) in 50 μL of PBS.
The agonistic anti-CMKLR1 antibody (2G1) or an anti-SIRPa antibody (p84-anti-mouse SIRPa from Merck Millipore) (SIRPa is a new checkpoint inhibitor) were injected once a week (20 μg/injection) intraperitoneally for 3 weeks starting at d4 after tumor inoculation alone or combined.

[1] = system: Akt and Erk phosphorylation in pro-inflammatory (M1) macrophages; assay: Western blot analysis ERK/Akt phosphorylation; assay type: cell-based, mice; details: 2 μg/mL; after 10 to 30 minutes of incubation; FIG. 17
Procedure: FIG. 17. Study of the CMKLR1 pathway activation: Akt and Erk phosphorylation. Western blot analysis of the ERK and AKT activation pathway after 5, 10 and 30 minutes of mice pro-inflammatory (M1) macrophages incubated with 2G1 or RvE1. The Phosphorylated protein Akt or Erk were assessed using P-Akt antibody or P-Erk antibody (p44/42). A. Erk and Akt activation with RvE1. B. Erk and Akt activation with 2G1.
Mice pro-inflammatory macrophages (M1) were generated from bone marrow with M-CSF and polarized with IFN-gamma (IFNg) and LPS. Briefly, bone marrow cells were collected by flushing the femoral bone and cultured with 100 ng/mL of mM-CSF for 5 days and then polarized with 20 ng/mL of IFNg and 100 ng/mL of LPS for 24 h. Then, they were deprived of FBS for 24 hours with RPMI FBS 2% medium. Finally, mice pro-inflammatory macrophages were treated with 2 μg/mL of 2G1 antibody at different times: 5, 10 and 30 minutes. Cells were collected in a RIPA buffer. The protein concentration was measured by a BCA protein kit assay. Proteins were denatured by heating at 95° C. for 5 minutes and diluted in DTT and Laemmli solution. After migration and transfer, the nitrocellulose membrane was blocked with 5% BSA in TBS-T for 2 hours. […] Western blot Images were quantified by Multi Gauge software

B1: 2G1: parental chimeric anti-CMKLR1 antibody: heavy chain variable domain SEQ ID No. 37, light chain variable domain SEQ ID No. 49 (antibody, V domains shown)
VH: EVQLVASGGGLVQPGGSLKLSCAASGFTFSSYGMSWVRQTPDRRLELVATINRYGGSTYYPDSVKGRFTISRDNAKNTLYLQMSSLKSEDTAMYYCPRLIYYGNEGDSWGQGTTLTVSS
VL: QIVLTQSPAIMSASPGEKVTMTCSASSSVSFMHWYQQKSGTSPKRWIYDTTKLTSGVPARFSGSGSGTFYSLTISSMEAEDAATYYCQQWNSKPPLTFGPGTKLELKR
MC38 cells
  tumor growth: did show an efficacy in the inhibition of the tumor growth
[1]
  activation of Akt and Erk proteins (phosphorylation): able to induce the activation of both Akt and Erk proteins
